From patent publication US20120329854

Experiments:
[1] = biological target: H3K4me1T6ph peptide (H3 tail residues 1-20) (UniProt P68431)
[2] = biological target: H3K4me2T6ph peptide (H3 tail residues 1-20) (UniProt P68431)
[3] = biological target: H3K4me1 peptide (H3 tail residues 1-20) (UniProt P68431)
[4] = biological target: H3K4me2 peptide (H3 tail residues 1-20) (UniProt P68431)
GST-H3 1-135 T6A = GST-H3 1-135 T6A (UniProt P68431)
GST-H3 16-30 = GST-H3 16-30 (UniProt P68431)
[5] = biological target: histone H3 in untreated nucleosomes purified from HeLa cells (UniProt P68431)
[6] = biological target: GST-H3 1-135 (full-length histone H3) (UniProt P68431)
GST-H3 29-44 = GST-H3 29-44 (UniProt P68431)
GST H3 1-15 T6A = GST H3 1-15 T6A (UniProt P68431)
GST-H3 1-15 = GST-H3 1-15 (UniProt P68431)

Substance | demethylation assay, mass spectrometry [1] | demethylation assay, mass spectrometry [2] | demethylation assay, mass spectrometry [3] | demethylation assay, mass spectrometry [4] | phosphorylation in the presence of [γ-32P]ATP (autoradiography) (GST-H3 1-135 T6A) | phosphorylation in the presence of [γ-32P]ATP (autoradiography) (GST-H3 16-30) | phosphorylation of nucleosomes at H3T6 (in vitro kinase assay, Western blot with α-H3T6ph) [5] | phosphorylation in the presence of [γ-32P]ATP (autoradiography) [6] | phosphorylation in the presence of [γ-32P]ATP (autoradiography) (GST-H3 29-44) | phosphorylation in the presence of [γ-32P]ATP (autoradiography) (GST H3 1-15 T6A) | phosphorylation in the presence of [γ-32P]ATP (autoradiography) (GST-H3 1-15)
bacterially expressed and purified His-LSD1 | demethylation of H3K4me1 by LSD1 is completely abrogated in the presence of phosphorylated T6 | is completely blocked when the peptides are phosphorylated at T6 | demethylation of H3K4me1 by LSD1 | The robust demethylation of H3K4me2 observed in the presence of LSD1 |  |  |  |  |  |  | 
purified recombinant active PKCβI (ProQinase) |  |  |  |  | mutation of threonine 6 to alanine in either H3 1-15 (H3 1-15 T6A) or in full length H3 (H3 1-135 T6A) abolishes phosphorylation | but not H3 16-30 or H3 29-44, are phosphorylated by PKCβI | only PKCα, 131 and 132 phosphorylate nucleosomes at H3T6 | only full-length histone H3 (H3 1-135) and a H3 fragment spanning amino acid residues 1 to 15 (H3 1-15), but not H3 16-30 or H3 29-44, are phosphorylated by PKCβI | but not H3 16-30 or H3 29-44, are phosphorylated by PKCβI | mutation of threonine 6 to alanine in either H3 1-15 (H3 1-15 T6A) or in full length H3 (H3 1-135 T6A) abolishes phosphorylation | only full-length histone H3 (H3 1-135) and a H3 fragment spanning amino acid residues 1 to 15 (H3 1-15), but not H3 16-30 or H3 29-44, are phosphorylated by PKCβI
purified recombinant active PKCδ (ProQinase) |  |  |  |  |  |  | only PKCα, 131 and 132 phosphorylate nucleosomes at H3T6 (PKCδ tested, no phosphorylation) |  |  |  | 
